How the values were obtained:
[1] = molecular target: Human CD3 epsilon (CD3epsilon) protein (His Tag) (human) (UniProt P07766); test: ELISA, protein coated on plate
[2] = molecular target: Cynomolgus Monkey CD3epsilon protein (Cynomolgus monkey) (UniProt Q95LI5); test: ELISA, protein coated on plate
[3] = molecular target: mouse CD3epsilon protein (mouse) (UniProt P22646); test: ELISA, protein coated on plate
[4] = molecular target: human CD3 receptor on T cell surface (Jurkat cells, human CD4 T cells) (human) (UniProt P07766); test: flow cytometry on Jurkat cells, one site saturation fit
Chain of human CD3 receptor on T cell surface (Jurkat cells, human CD4 T cells) (human) (P07766 23-207): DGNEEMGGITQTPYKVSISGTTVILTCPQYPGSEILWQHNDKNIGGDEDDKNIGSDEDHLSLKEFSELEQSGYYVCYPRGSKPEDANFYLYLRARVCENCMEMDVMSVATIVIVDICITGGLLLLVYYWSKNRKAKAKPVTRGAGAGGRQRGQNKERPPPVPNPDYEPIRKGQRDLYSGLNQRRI

Chain of mouse CD3epsilon protein (mouse) (P22646 22-108 limits assumed): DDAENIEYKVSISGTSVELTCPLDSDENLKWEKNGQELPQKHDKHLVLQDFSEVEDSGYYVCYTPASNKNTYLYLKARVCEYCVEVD
Chain of Cynomolgus Monkey CD3epsilon protein (Cynomolgus monkey) (Q95LI5 22-117 limits assumed): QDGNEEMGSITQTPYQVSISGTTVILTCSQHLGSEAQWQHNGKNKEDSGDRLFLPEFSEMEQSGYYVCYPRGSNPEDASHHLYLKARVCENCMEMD
Chain of Human CD3 epsilon (CD3epsilon) protein (His Tag) (human) (P07766 23-126): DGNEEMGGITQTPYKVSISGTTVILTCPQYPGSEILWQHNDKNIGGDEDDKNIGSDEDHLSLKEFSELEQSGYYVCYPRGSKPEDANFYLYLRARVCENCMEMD

## Negative Control
[1]
  ELISA A450: 0.046 A450
[2]
  ELISA A450: 0.046 A450
[3]
  ELISA A450: 0.179 A450

## Benchmark antibody OKT3
[4]
  Best fit- Bmax: 9.41e-11

Reference: US20230203159A1
